Assay results taken from US20030175703.
Where two headings read alike, the source gives them in different places.

Assays:
[1] = biological target: coagulation factor IXa (FIXa) (UniProt P00740+P00740); settings: FIG. 20 legend gives >>5 uM
E2F [2] = tested on: E2F
E2F [3] = tested on: E2F; remark: listed apart in the source
[4] = biological target: coagulation factor Xa (FXa) (UniProt P00742+P00742)
Chain of coagulation factor Xa (FXa) (P00742 41-179, chain 1 of 2): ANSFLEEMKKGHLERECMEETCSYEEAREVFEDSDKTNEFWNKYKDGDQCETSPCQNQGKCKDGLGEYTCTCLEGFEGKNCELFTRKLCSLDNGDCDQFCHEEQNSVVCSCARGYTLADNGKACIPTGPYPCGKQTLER
Chain of coagulation factor Xa (FXa) (P00742 235-488, chain 2 of 2): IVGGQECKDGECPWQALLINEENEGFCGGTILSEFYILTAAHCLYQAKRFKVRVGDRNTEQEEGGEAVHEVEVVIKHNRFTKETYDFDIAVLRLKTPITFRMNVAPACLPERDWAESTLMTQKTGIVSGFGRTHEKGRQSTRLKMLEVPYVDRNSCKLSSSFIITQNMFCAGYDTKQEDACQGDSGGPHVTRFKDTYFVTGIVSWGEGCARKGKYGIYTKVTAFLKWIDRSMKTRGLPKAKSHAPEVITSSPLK

Chain of coagulation factor IXa (FIXa) (P00740 47-191, chain 1 of 2): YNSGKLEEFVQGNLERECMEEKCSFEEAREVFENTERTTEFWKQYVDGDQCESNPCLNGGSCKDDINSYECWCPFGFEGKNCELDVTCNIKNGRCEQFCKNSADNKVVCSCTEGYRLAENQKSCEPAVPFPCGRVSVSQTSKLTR
Chain of coagulation factor IXa (FIXa) (P00740 227-461, chain 2 of 2): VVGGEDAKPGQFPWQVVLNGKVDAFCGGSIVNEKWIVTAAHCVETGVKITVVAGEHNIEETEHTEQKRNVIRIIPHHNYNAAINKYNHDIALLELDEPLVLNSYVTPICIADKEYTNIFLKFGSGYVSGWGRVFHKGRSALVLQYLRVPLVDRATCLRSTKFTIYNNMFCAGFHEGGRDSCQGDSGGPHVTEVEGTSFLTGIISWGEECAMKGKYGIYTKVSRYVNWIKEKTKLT

Row | Substance | Kd (E2F [2]; random region only) [nM] | also measured
1 | 9.3tM |  | Kd [1]: > 10000 nM
2 | AAUGGAAUCACUGAAGGCCCUCCGUAGCACCUAACACAGU [E2F aptamer 221] | 1.5 | 
3 | ACCUCGACCCUUCACCUGACUCUCCCAGAAGUUCUGUUUC [E2F aptamer 219] | 2 | 
4 | AUCCCCGCCGUAAGCCGUCCUGAUGGACACCACACGCCGC [E2F aptamer 226] |  | Kd (E2F [2]; random region only, table and listing differ near 5' end): 2 nM
5 | CAAGCGCUGAAACCAAUGCACCCCACCCCACACUGGUGUAC [E2F aptamer 204] | 1.25 | 
6 | CAAGCGUAUACCCUACCCACACUGAGCUACAUUGCGCUGA [E2F aptamer 213] | 8 | 
7 | CACUGAACGAAUGGCAACCGCCAAACCCUACCCACACUGG [E2F aptamer 212] |  | Kd (E2F [2]; listed as assignment inferred): 0.2 nM
8 | CAGAUUACCCUACCCACACUGCGUGCGGACAACCAUUGGC [E2F aptamer 201] | 0.4 | 
9 | CCACCCGAAGCAAAUCAAGCCCGACGGCGCUCGGACCAAC [E2F aptamer 217] | 15 | 
10 | CGAACGAACUGUGGACCCUACCCACACUGGGCCAAGCGAU [E2F aptamer 207] | 0.4 | 
11 | CGUCACUCCGUCCCAGCCGACGAAGUCCGUAAUUCCUCCA [E2F aptamer 216] | 45 | 
12 | GCACUAAACUUCGAUUACCCCCCACCCACACUGGCUGCAC [E2F aptamer 200] | 4 | 
13 | GCAUCCUGCCAGCGGCGACGGACCUUCGCCCACAGGCCUC [E2F aptamer 222] | 2 | 
14 | GCCGAGAGUGAGUGACCACAACCCCGCCCACACUGGAAUA [E2F aptamer 214] | 1.5 | 
15 | GCUGCCGCGCCUGGACCCCACCCACAUAUGGGCCACACAC [E2F aptamer 189] |  | Kd (E2F [2]; random region only, listing prints T for U): 1.5 nM
16 | GGGAGAGAGGAAGAGGGAGGGAAAGCACACGAAGCCCCAGCAAAACCCCACAGGCAAACCCAGAGGCGAAGACGGACCCCCC [E2F 10-3 / 10-7 / 10-11 / 10-12] |  | Kd (E2F [3]; printed sequence appears to lack U residues (compare SEQ 223)): 1 nM
17 | GGGAGAGAGGAAGAGGGAGGGAAGGAACACGAAGGCCCCCGAGCACCAACACAGCAAACCCAGAGGCGAAGACGGACCCCCC [E2F 10-1 / 10-8] |  | Kd (E2F [3]; printed sequence appears to lack U residues (compare SEQ 221)): 1.5 nM
18 | GGGAGAGAGGAAGAGGGAGGGACCCCGCCGAAGCCGCCGAGGACACCACACCCGCCAAACCCAGAGGCGAAGACGGACCCCCC [E2F 10-6] |  | Kd (E2F [3]; printed sequence appears to lack U residues (compare SEQ 226)): 2 nM
19 | GGGAGAGAGGAAGAGGGAGGGAGAAACACAGAAGCCCGCGCGACACCCCACGCAAACCCAGAGGCGAAGACGGACCCCCC [E2F 10-4] |  | Kd (E2F [3]; printed sequence appears to lack U residues (compare SEQ 224)): 5 nM
20 | GGGAGAGAGGAAGAGGGAGGGCAAACCACAGACCCAACGCAGGAGCACCCACCCACACGGGACAGCAAACCCAGAGGCGAAGACGGACCCCCC [E2F 10-5] |  | Kd (E2F [3]; printed sequence appears to lack U residues (compare SEQ 225)): 2.5 nM
21 | GGGAGAGAGGAAGAGGGAGGGGCACCGCCAGCGGCGACGGACCCGCCCACAGGCCCCAAACCCAGAGGCGAAGACGGACCCCCC [E2F 10-2] |  | Kd (E2F [3]; printed sequence appears to lack U residues (compare SEQ 222)): 3 nM
22 | GGGAGAGAGGAAGAGGGAUGGGAAAAUACGCCANNCGAGAUUAUACUUGGCCCCGCUAAUACCAUAACCCAGAGGUCGAU [D6-6] |  | Kd [4]: 3.1 nM
23 | GGGAGAGAGGAAGAGGGAUGGGAGUCCGACUGGAGAACANGUACUCUAUAAGCACUUNCAUNCANCAUAACCCAGAGGUCGAU [E10-7] |  | Kd [4]: 69.5 nM
24 | GGGAGAGAGGAAGAGGGAUGGGCCAUUGCUNCCCUGAACANGGGCNCCACNCCGCCUNCACAGUCAUAACCCAGAGGUCGAU [E10-1] |  | Kd [4]: 51.7 nM
25 | GGGAGAGAGGAAGAGGGAUGGGNGAUUAGCCCNAGCGAGAUANUACUUGGCCCCGCUACNUCCAUAACCCAGAGGUCGAU [D7-8] |  | Kd [4]: 14.5 nM
26 | UAUGAAAUCACAGAAGCCCGCGUUCGACACCUCCACUGUU [E2F aptamer 224] | 3 | 
27 | UUAUAUAGCACACUGAAGCCCUCAGCAAAACCUCCACAGG [E2F aptamer 223] | 1.5 | 
28 | UUUCCUAUGGCGAUAACUUCAGCCACGCCGGCGCCCCGUG [E2F aptamer 215] | 30 | 
